Patent publication US20180125988A1, “TARGETED XTEN CONJUGATE COMPOSITIONS AND METHODS OF MAKING SAME” (AMUNIX OPERATING INC., priority 2014, published 2018)

T1: human neutrophil elastase (Homo sapiens, UniProt P08246)
T1 construct: purchased R&D Systems
T1 sequence (P08246 30-267): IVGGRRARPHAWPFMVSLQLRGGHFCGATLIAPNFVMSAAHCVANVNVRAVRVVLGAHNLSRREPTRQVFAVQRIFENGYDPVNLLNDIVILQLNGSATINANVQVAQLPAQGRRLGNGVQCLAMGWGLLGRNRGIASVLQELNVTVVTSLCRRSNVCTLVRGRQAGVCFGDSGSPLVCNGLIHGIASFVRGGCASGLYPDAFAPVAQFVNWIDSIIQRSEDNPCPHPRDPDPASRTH

B1: AC398: fusion protein of FVII with AE288 (protein)
chain: AVFVTQEEAHGVLHRRRRANAFLEELRPGSLERECKEEQCSFEEAREIFKDAERTKLFWISYSDGDQCASSPCQNGGSCKDQLQSYICFCLPAFEGRNCETHKDDQLICVNENGGCEQYCSDHTGTKRSCRCHEGYSLLADGVSCTPTVEYPCGKIPILEKRNASKPQGRIVGGKVCPKGECPWQVLLLVNGAQLCGGTLINTIWVVSAAHCFDKIKNWRNLIAVLGEHDLSEHDGDEQSRRVAQVIIPSTYVPGTTNHDIALLRLHQPVVLTDHVVPLCLPERTFSERTLAFVRFSLVSGWGQLLDRGATALELMVLNVPRLMTQDCLQQSRKVGDSPNITEYMFCAGYSDGSKDSCKGDSGGPHATHYRGTWYLTGIVSWGQGCATVGHFGVYTRVSQYIEWLQKLMRSEPRPGVLLRAPFPGSPGTSESATPESGPGSEPATSGSETPGTSESATPESGPGSEPATSGSETPGTSESATPESGPGTSTEPSEGSAPGSPAGSPTSTEEGTSESATPESGPGSEPATSGSETPGTSESATPESGPGSPAGSPTSTEEGSPAGSPTSTEEGTSTEPSEGSAPGTSESATPESGPGTSESATPESGPGTSESATPESGPGSEPATSGSETPGSEPATSGSETPGSPAGSPTSTEEGTSTEPSEGSAPGTSTEPSEGSAPGSEPATSGSETPGTSESATPESGPGTSTEPSEGSAPGSSS
B2: AC404: fusion protein of FVII with AE864 (protein)
chain: AVFVTQEEAHGVLHRRRRANAFLEELRPGSLERECKEEQCSFEEAREIFKDAERTKLFWISYSDGDQCASSPCQNGGSCKDQLQSYICFCLPAFEGRNCETHKDDQLICVNENGGCEQYCSDHTGTKRSCRCHEGYSLLADGVSCTPTVEYPCGKIPILEKRNASKPQGRIVGGKVCPKGECPWQVLLLVNGAQLCGGTLINTIWVVSAAHCFDKIKNWRNLIAVLGEHDLSEHDGDEQSRRVAQVIIPSTYVPGTTNHDIALLRLHQPVVLTDHVVPLCLPERTFSERTLAFVRFSLVSGWGQLLDRGATALELMVLNVPRLMTQDCLQQSRKVGDSPNITEYMFCAGYSDGSKDSCKGDSGGPHATHYRGTWYLTGIVSWGQGCATVGHFGVYTRVSQYIEWLQKLMRSEPRPGVLLRAPFPGSPGSPAGSPTSTEEGTSESATPESGPGTSTEPSEGSAPGSPAGSPTSTEEGTSTEPSEGSAPGTSTEPSEGSAPGTSESATPESGPGSEPATSGSETPGSEPATSGSETPGSPAGSPTSTEEGTSESATPESGPGTSTEPSEGSAPGTSTEPSEGSAPGSPAGSPTSTEEGTSTEPSEGSAPGTSTEPSEGSAPGTSESATPESGPGTSTEPSEGSAPGTSESATPESGPGSEPATSGSETPGTSTEPSEGSAPGTSTEPSEGSAPGTSESATPESGPGTSESATPESGPGSPAGSPTSTEEGTSESATPESGPGSEPATSGSETPGTSESATPESGPGTSTEPSEGSAPGTSTEPSEGSAPGTSTEPSEGSAPGTSTEPSEGSAPGTSTEPSEGSAPGTSTEPSEGSAPGSPAGSPTSTEEGTSTEPSEGSAPGTSESATPESGPGSEPATSGSETPGTSESATPESGPGSEPATSGSETPGTSESATPESGPGTSTEPSEGSAPGTSESATPESGPGSPAGSPTSTEEGSPAGSPTSTEEGSPAGSPTSTEEGTSESATPESGPGTSTEPSEGSAPGTSESATPESGPGSEPATSGSETPGTSESATPESGPGSEPATSGSETPGTSESATPESGPGTSTEPSEGSAPGSPAGSPTSTEEGTSESATPESGPGSEPATSGSETPGTSESATPESGPGSPAGSPTSTEEGSPAGSPTSTEEGTSTEPSEGSAPGTSESATPESGPGTSESATPESGPGTSESATPESGPGSEPATSGSETPGSEPATSGSETPGSPAGSPTSTEEGTSTEPSEGSAPGTSTEPSEGSAPGSEPATSGSETPGTSESATPESGPGTSTEPSEGSAPGSSS
B3: XTEN_AE864: extended recombinant polypeptide of 864 amino acids, AE motif family (protein)
chain: GSPAGSPTSTEEGTSESATPESGPGTSTEPSEGSAPGSPAGSPTSTEEGTSTEPSEGSAPGTSTEPSEGSAPGTSESATPESGPGSEPATSGSETPGSEPATSGSETPGSPAGSPTSTEEGTSESATPESGPGTSTEPSEGSAPGTSTEPSEGSAPGSPAGSPTSTEEGTSTEPSEGSAPGTSTEPSEGSAPGTSESATPESGPGTSTEPSEGSAPGTSESATPESGPGSEPATSGSETPGTSTEPSEGSAPGTSTEPSEGSAPGTSESATPESGPGTSESATPESGPGSPAGSPTSTEEGTSESATPESGPGSEPATSGSETPGTSESATPESGPGTSTEPSEGSAPGTSTEPSEGSAPGTSTEPSEGSAPGTSTEPSEGSAPGTSTEPSEGSAPGTSTEPSEGSAPGSPAGSPTSTEEGTSTEPSEGSAPGTSESATPESGPGSEPATSGSETPGTSESATPESGPGSEPATSGSETPGTSESATPESGPGTSTEPSEGSAPGTSESATPESGPGSPAGSPTSTEEGSPAGSPTSTEEGSPAGSPTSTEEGTSESATPESGPGTSTEPSEGSAPGTSESATPESGPGSEPATSGSETPGTSESATPESGPGSEPATSGSETPGTSESATPESGPGTSTEPSEGSAPGSPAGSPTSTEEGTSESATPESGPGSEPATSGSETPGTSESATPESGPGSPAGSPTSTEEGSPAGSPTSTEEGTSTEPSEGSAPGTSESATPESGPGTSESATPESGPGTSESATPESGPGSEPATSGSETPGSEPATSGSETPGSPAGSPTSTEEGTSTEPSEGSAPGTSTEPSEGSAPGSEPATSGSETPGTSESATPESGPGTSTEPSEGSAP
modifications: conjugated
notes: extended recombinant polypeptide of 864 amino acids, AE motif family
B4: XTEN_AG864: extended recombinant polypeptide of 864 amino acids, AG motif family (protein)
chain: GASPGTSSTGSPGSSPSASTGTGPGSSPSASTGTGPGTPGSGTASSSPGSSTPSGATGSPGSSPSASTGTGPGASPGTSSTGSPGTPGSGTASSSPGSSTPSGATGSPGTPGSGTASSSPGASPGTSSTGSPGASPGTSSTGSPGTPGSGTASSSPGSSTPSGATGSPGASPGTSSTGSPGTPGSGTASSSPGSSTPSGATGSPGSSPSASTGTGPGSSPSASTGTGPGSSTPSGATGSPGSSTPSGATGSPGASPGTSSTGSPGASPGTSSTGSPGASPGTSSTGSPGTPGSGTASSSPGASPGTSSTGSPGASPGTSSTGSPGASPGTSSTGSPGSSPSASTGTGPGTPGSGTASSSPGASPGTSSTGSPGASPGTSSTGSPGASPGTSSTGSPGSSTPSGATGSPGSSTPSGATGSPGASPGTSSTGSPGTPGSGTASSSPGSSTPSGATGSPGSSTPSGATGSPGSSTPSGATGSPGSSPSASTGTGPGASPGTSSTGSPGASPGTSSTGSPGTPGSGTASSSPGASPGTSSTGSPGASPGTSSTGSPGASPGTSSTGSPGASPGTSSTGSPGTPGSGTASSSPGSSTPSGATGSPGTPGSGTASSSPGSSTPSGATGSPGTPGSGTASSSPGSSTPSGATGSPGSSTPSGATGSPGSSPSASTGTGPGSSPSASTGTGPGASPGTSSTGSPGTPGSGTASSSPGSSTPSGATGSPGSSPSASTGTGPGSSPSASTGTGPGASPGTSSTGSPGASPGTSSTGSPGSSTPSGATGSPGSSPSASTGTGPGASPGTSSTGSPGSSPSASTGTGPGTPGSGTASSSPGSSTPSGATGSPGSSTPSGATGSPGASPGTSSTGSP
modifications: conjugated
notes: extended recombinant polypeptide of 864 amino acids, AG motif family

Key:
[1] = Analytical size exclusion chromatography of XTEN fusion proteins; format: physicochemical; conditions: for RH (nm), hydrodynamic radius / Apparent MW (kDa): SEC; for Apparent MW (kDa): BioRad calibration standard; for Apparent Molecular Weight Factor: ratio of apparent molecular weight to calculated molecular weight
[2] = Biodegradation of XTEN in rat plasma, rat kidney homogenate and PBS buffer (SDS-PAGE); format: in vitro ADME; conditions: 0.3 mg/ml
Experimental: Purified XTEN_AE864 protein was incubated at a final concentration of 0.3 mg/ml in rat plasma (Bioreclamation IVT, Baltimore, Md.), rat kidney homogenate (Bioreclamation), or PBS buffer for up to 7 days at 37° C. Samples were withdrawn at time 0, 4 hours, 24 hours, and 7 days, were immediately frozen and stored at -80° C., then thawed right before analysis. XTEN was extracted from the samples by methanol precipitation. Briefly, methanol pre-chilled at −20° C. was added to the samples at a volume ratio of 2:1 and mixed by vortex. The mixture was kept at −20° C. for 30 min and then centrifuged at 14,000 rpm for 20 min at 8° C. The supernatant was subjected to centrifugal evaporation for 1-2 hours to take the sample to complete dryness, and was then resuspended in PBS buffer to the original volume before methanol extraction. The reconstituted samples were analyzed by SDS-PAGE with staining using Stains-all.

[3] = target: T1, human neutrophil elastase; assay: Neutrophil elastase digestion of XTEN_AE864 (SDS-PAGE); format: biochemical; conditions: 10 μM XTEN, 37° C., 2 hours
Experimental: It had been speculated that neutrophil elastase, a serine protease with broad substrate specificity, may be able to degrade XTEN. […] 10 μM of purified XTEN_AE864 was incubated with 1:1000 or 1:100 molar ratio (elastase:XTEN) of human neutrophil elastase (R&D Systems) at 37° C. for 2 hours. Samples before and after digestion were analyzed on SDS-PAGE gel followed with coomassie staining (FIG. 86).

[4] = Half-life of XTEN_AG864 in cynomolgus monkeys; format: in vivo
Description: The methods and materials utilized were adapted from those of Example 1, above.

Row | Molecule | RH (nm), hydrodynamic radius [1] [nm] | Apparent MW (kDa) [1] [kDa] | Apparent Molecular Weight Factor [1] | other results
1 | B1 | 8.2 | 650 | 8.5 | 
2 | B2 | 10.1 | 1900 | 14.7 | 
3 | B3 |  |  |  | degradation in PBS buffer ([2]; PBS buffer, 7 day incubation at 37° C.): only minor signs of degradation; degradation in rat kidney homogenate ([2]; rat kidney homogenate, 37° C., by the 24 hour interval): rapidly degraded; degradation in rat plasma ([2]; rat plasma, 7 day incubation at 37° C.): only minor signs of degradation; degradation by neutrophil elastase ([3]; 1:100 molar ratio (elastase:XTEN)): completely digested; degradation by neutrophil elastase ([3]; 1:1000 molar ratio (elastase:XTEN)): Partial degradation
4 | B4 |  |  |  | half-life [4]: exceeding 60 h
